17 sequences from the DeepSol protein solubility set can be followed below.

The data set is described as follows: soluble on expression in E. coli; label from the status in PepcDB or PDB records.
For “MAHHHHHHMPLRIGGFNVCCYHDCTNAAAIHAELKRRHIDAAVVDHAFLISPLQLAVALFRVEGSADMLTTRSPFTISPPLAEASSPSPTSTSASPSLPPLLQQQPTRRVSNSRQIFAALSLSHNLDRILQVLPPGPQTTSVVIIYKRSGSARAAAVSFADDVGADSAVASTVPDGDGLDATINACVQLTNSAAQAHTFALITEPFWTGAAFAFADVSKVALFYGISESMLLAAQRSMTRADVRRVCVGAESQEAPAQVLRWHALEVCVTTLLSACTA”, the “soluble on expression in E. coli” value is “soluble”.

Take “MAHHHHHHMPPLAQLCALALQYRCDLSQEIDQNIRSCFHSSRVPSISLWDYIRRFAKYSVCSEECFILAMVLMDRYVCKTQIPITLRNVHRLYITAMTLSVKLRDDSYYSNAYYASIGGVVNAELNVLELELLDIVQWFTWVEKSVYDAYVARLEALFGDAMPKLLVASPNK”: the “soluble on expression in E. coli” value is listed as “not soluble”.

Consider “MAHHHHHHMPRALRYCRPRRDPDESLLAYLSTKFTYLADAQWRQHIAAGDISVNGETLTDGSYVLRQGDMLRFAPPRSLEPPVDSEHIEVLYEDSTLLVVTKNGNLPVAEGGRYCENTLVEVLRRRGTAAFYTASTRTSFGTTHEDTEKVSDSPTHAGEIVETAARAEGSTAMDASGKGAEIPTSPPSRRRLEDGSHGIFAVGSAPCASVPSPKASTVQQRSSLDLFTVQRLDKETSGVVVLAKNSVSARTLASQLEAQTKGCADAVESRLRERGHAVALSSDAFDELLRLKAQSVHKTYTAVLRGAAPEDHTFVVVNCMDCMAKHPTHSWEAQHTQLKKLKMCCEPVKEMLFSHAAAALPQSPKEQQTRWGRLAVTRIRVLASNKKLGLTCVQVELLTGRSHQIRLHCAAVGYPVLGDKLYTTMTPGREGGATAVSDAVYLERVRREDDPYLPIDDDVSGAGGSSRSGKMWCRRHLLHATRIIFAHPDVSPARLMTFMASPAPFFTADVRFECEEDSLLFSQWLTRAVSRPLERAEASQS”, for which the “soluble on expression in E. coli” value is reported as “not soluble”.

Regarding “MAHHHHHHMPRPPQRIRAQSEGVVGRWYTNYWTLHSVRYQCQLAGVEWQFGERQRPRTNYDEPHMYTDFEETKAIRDYRSRWINVNRSLVGMSRRMKESEEEARYLHFKKVQDTFWSNRKVLVNRIKSMHNQGTLQSAKDLPIKTINIKAFLAE”, the “soluble on expression in E. coli” value is on record as “soluble”.

Turning to “MAHHHHHHMPRSEKQSEEDDWELHPLFLSKIPNKKDINKNQALSALITLINEEEEKEVFSYEPRRKNLKKKITEKGQIIYKKDRRNFYEPYQQNKNDKINYFEKKTLGGHSDVSKEEEVMDVEVDEEGTPLTAAQQGGDHSGQNVSSSQQATDETSIGEVLVCLSMINLK”, the “soluble on expression in E. coli” value is listed as “not soluble”.

With “MAHHHHHHMPSAPTCQHGSYHQCECYGHNTQLPNYRHDISNPRTLQGYYAPNGGCPCPATCGAEKHGLYCSDRGADASAMPKLTFRAADGPHTVHSASDVDGNGRDPATSIRTAFPNSRNYGGTVAQRGPTTLSTRAQLSASRKARAEAKREERAQDRKNFLRGVLRDEMLARMDAEGKRAALEADTGLMGTHHGEEYEANQRAAGSMRGGLDSTSRDPDTVLTLGEQYREIMDELEYVADQPVGSKYNIIRLHYLVEEEDRLNRLRLQERIRKTAEAMQSKK”, the “soluble on expression in E. coli” value was “not soluble”.

Regarding “MAHHHHHHMQEFSTYSLFSRKNETVSGMDENFDNHPENYFKEEYYYDENDDMEVKVKKIGVTLKKFEPLKNGNVSETIKLIHLGNKDKKHIEAINNDIQIIKQELQAIYNELMNYTNGNKNIQQIFQQNILENDVLNQETERQTRSRGGG”, the “soluble on expression in E. coli” value is reported as “soluble”.

Take “MAHHHHHHMQFGIKVEPYGYDKLVWLETDALKVGLTNYAASVASIQVYHPADNKWIEVNCGYPKNPEEAYADPDYMGATVGRCAGRVAGGVFTLDGVKYYTQKNRGENTCHCGDDAYHKKHWGMKLIETANVIGVRFNYTSPHMESGFPGEVKNYCTFTIDRSKPNALKTIYDSYITDNSPCDASPINVFSHTSFNLNGIPGQQDGEKNWVQPESVRNHWLRVPASRVAEADRMAIPTGEFLSVEGTGLDFRQGRVIGDCIDDVALLDRDPCGYDHPLAIDGWEKGKLMLHAEAKSPVTNICMKVYSTFPCMWVYTANNKPLPASGGPGQRYARWTGLLVGPQNFSDVANHYPKYPSCIVRRGERQYSETTINEFTIEQ”: the “soluble on expression in E. coli” value is “soluble”.

On to “MAHHHHHHMQFGPVVSEAEIRTVQDGIANGVRSDGRSLTQRRPFTVVTNRGSTTHFEGSSVEVHCDGTTVVAAATPSVVELDIDRGQAPRGSLFVNIDAVPAVVEHYAQSVRNNSARYRQAFLSFLATAIRQTFGAQGVTAEERQQQLGIAEAEIIADEGDDEQREDAFGGRGAAEEKPVEETAEQRVDCCGFPGEQLYIGGGYAFRIDVDAHVLQAHGGSLASIVALAVHAALKTVRLPSVTLHEASAGFSLEVNYSKPYATAVNWSRLPVLSVVHVSPTRHYVVDPTRLEELALPQQLRVAVNSFGQVFHMRFQQLPSRRGNAMRLIRSPREEAGKDNSNDNSERDVDGDDVDDSSRRGFDAGVKGTVGGMNMPDMAAVLHAAVHISQAVIAECDEALAGSSG”, for which the “soluble on expression in E. coli” value is given as “not soluble”.

Consider “MAHHHHHHMQQLEQELSLRQSAIETREQQLEMVQLDGARGREAIMRERHSIEEVRRTVRVERCRQRRLWIHQIKEMNAKVLEQVRLLAEERKKNCEQATAKEDAAERAFAADIKMIEEYLPKLISLEDIPVNPEETDIIRRQFDEVFTQGEQTYLASAEEEQARKERLGRGLEVYRQRMLDDYVGKENGKLHDAEATERHLSSVVDQVLN”, for which the “soluble on expression in E. coli” value is reported as “not soluble”.

Turning to “MAHHHHHHMQSQQHHYTASPTASPALSRAGVSSTPVLILDLGSRTIKSGLHTATTPHLTPALVGTPKYPRCLPQVSSSFNQSSSISTSCFVVGSDAASRRGVLRLSRPIQHGGVIMDWVGTRPLLRQSIQNALVPPSSSLAVRQPLEEGEDVIYSLVESPYASRPQRARLAELLFEGPDQEAVMSDSGKQQRVGPRAAGVFCGVGPLLALYATGQTTGVVVDVGDGAVSTAAAADGYVLPQCLQREADGATGAAVTSYLTRLLYQSGVLGPAAATAAFRRSAPPSLLGSATNHLSSGAGAGTQQERELVYALKEACCSVSATPLFSTKSSLAAADASTAATPSLAELNSALIAAAQRTQHSGPGGSGAAHASTPFSHPFTLPDGSFLEVGGAEAAQASEVLFYPALMGSEGRGVVDVVLDAVAAAPAELQPQLLGNVVVTGGVTCSAGFGYRFFNEMQQRIRGCAASSTNGSSNQRICVSAPEQRAYAAWMGASYVAQISSFASSMVVTRAAYEEEGEAALARRVLT”, the “soluble on expression in E. coli” value is “not soluble”.

Regarding “MAHHHHHHMRGKGHKRLAARSFQQWQKLHYNALCDRQMPTPLHATLRLPVRRVAHQPSSCPSAPASVDMQLTTNSSAVLQWWQREYDPFLLGCDASAHRTAGPTPPATTATHVLASTRVSAHVGPPAPPLGYPDYIAIEATQHTEGVLRGETYAYHHAAAVGAVPAPPPGAAYPSPVKWIQQPLLDGFVAQRLTAHIGVTTGSLLDTRRTAMALGRQLPPVELSPFYAASALLDRWCLFGEAAAVVPSMPASSGATLDGTQQSQRPHDAAAHHLRIAELALGAGLLSNYRAVWLNGAVLSHPGTARSVLVVGPRRSGKTTLALHCLSAAAMQASSSASGDGGVRLTAAEHFFLAAGMPVRRMLDPASTRLTSPTIFACSLPHHITVGLGAVLGTLRPNPGLAAAVELPSFLQCEAGLRACLRNTDGVLWDMSKTYRVRLEDIYRASSPDISTQWAPVVVNTLAGVVLLDWNVEELASASPTPVRNAVREIPLHDGGVEELLKRAQDYMFHGHHLLRTVYDAPQDAPARLADALADEWDTAQPRSLANGTAPALHCIEGSVNFDLATQLIMSLLSERA”, the “soluble on expression in E. coli” value was “not soluble”.

Turning to “MAHHHHHHMRRWGAAGPLRSGLQLRQVASAARRRQPAQLKIPISDAPAHVKAMERPRSKLETPAAYSSFRSTETIEEFRENYKYLAAGERETSVTARVAGRITSLRDMGKMLFATVRSSGVDLQLVVHVGEHFTRDCLKQLRASLRVGDIVGAEGIPCRMQRGELSLAASRVEVLAPYVCRDQVVCPDLRGFTQLQDNDVRYRYRFVDMMTNRSVIDTIRKRHTVLQSLREYLDMRHFVEVETPILHTVASGANAKPFVTHHNANNADLFLRVAPELYLKQCVVGGLERVYEIGKVFRNEDADRSHNPEFTTCEFYAAYHTYEDLITMTEDIFRHLALRANGTTQLQIQCERAGITREIDLGATFRRISVYDEIQSASGVELPPPNELNTPKGLAYMSAIMLRHDIQFPAVRTAAKMFDKLIDFFITSHIVEPTFVMDHPIFMSPLAKEHSSRPGLAERFELFINGIEYCNAYSELNDPQEQCHRFQQQLIDRQGGDEEAMPLDETFLKSLQVGLPPTAGWGMGIDRVVMLLSGSSTIRDGIIFPLLRQDTRSHDCKRRHRVATFFDFNHQMALLCLSGVEQEMKRRGFPEASCAHIRELRQTIRDLGQRSGESDLTNFNCGEWWPGLTKTMIRLMCGRPRS”, the “soluble on expression in E. coli” value was “not soluble”.

With “MAHHHHHHMRVYECDFYSHPAVCKYRLPKPYRHPTLDKRLREQRSVREARALVRCQKQGIAVPAVYAIDRESCAIVMERIIGMSVRDVLNEAQRPLEGAVSPVAARLLEGMGEVVGLLHNAHIIHGDLTTSNFMYRTATVAEGKADSAACGAAPRDRLVVLDFGLVMDKNSAEERAVDLYVLERAIKSSHPSLEGVASAFILNGYRRTADPHQVEATITRLGAVRARGRKRSMVG”, the “soluble on expression in E. coli” value is reported as “not soluble”.

Take “MAHHHHHHMSAARDDSAPCAVPSTLWRECLKQYDYGPDRPKGACEAHRTKFYDCVKDWTARTQHKSYSYTQFELPKSCGHEAEKLHQCMMMNMFEVGHCQRDMAVLKRCAARVDPEVRKYLQDDEAIADLENDIDEATGLKRLWYKVIGKL”: the “soluble on expression in E. coli” value is listed as “soluble”.

As for “MAHHHHHHMSASPQLTRELSEDLLAGRYECVVCSEPVGHRQELWACSCCYGVFHLPCIRFWADSQMKARDRQLQSTSGVAVRGELERFRCPLCQSFKDKDSLAVYQCYCGKTAKPPADAMLVPGSCGQPCERRQADPCCPHRCTLLCHPGPCPACTRVREQACWCGKHSKTVGCSSSIHGYECDEACGKLLDCGEHRCKAPCHEGVCPVCTVMVTEKCYCGATVRTRRCGAAPPAFAGAAATAAADDRAAGDAGAGASVSGFRCAHHCEKKRDCDQHVCGMLCHPGLCEKCYRTPQRQKFCPCGKTRVQVERTSCMDPVPSCGLPCELPLPCGHLCWLTCHDETPCAPCKETVTVPCACGSRHVSSPCFCQYLPESEWEAARVQCGLPTDSLPVSVPPKCNQVCRHMLSCHKHRCTMTCCTDAEHTCLQICIRKLACGVHQCGRLCHQGKCPPCAHVSYERLYCRCRKTWVDPPVPCGMRPPQCNHPCSIPRPCGHPPNHPCHIEAECPKCVVLEEKPCASHQKPMPFHMPCYKKEISCGRKCGKNLPCCGKFCDLVCHIGPCEHDCAKSFPTLADVLKRGKGAAA”, the “soluble on expression in E. coli” value is reported as “not soluble”.

Turning to “MAHHHHHHMSAWASGDTLERLKLKPETAPSNRGNGRQASADATSSTSVKATSNADAEGVVQASMAATIASTNKNKNKKALEGKVSKKNAPKNTAHTADEKQPPTQEQTASSSGGAKRNEPKKGASDSRDCPVTLPSDVAELVVNAFTFIGTVQALRAGTSTDGRESMLSAAVRAPEFVPQRRDYAVQNATSGSDTQHVGELASNAYPMHHHHHHHHYQLHQQQKQPQHTPLVSTSRVQQQEQPPWAPYYNDQQHRQHHSVHHHRHQQQQQQLAYGQPDCTTGKMYHDAYSPVDYDMNLCAAPPYSRMYSGYPGMCMGANMLPNMSGYGGLALRRPLPYFPQQQNQVTAYKSTHVGQQQPWMRNDSGPSNARKGSGAGQWYPGGQAGFNDALSVWNQQRNAGNWARQAEQSGPAGAHTSSAP”, the “soluble on expression in E. coli” value is “not soluble”.
